The target of this data set is T1, PURA (Pur-alpha) (Homo sapiens, UniProt Q00577 1-322).
T1 sequence: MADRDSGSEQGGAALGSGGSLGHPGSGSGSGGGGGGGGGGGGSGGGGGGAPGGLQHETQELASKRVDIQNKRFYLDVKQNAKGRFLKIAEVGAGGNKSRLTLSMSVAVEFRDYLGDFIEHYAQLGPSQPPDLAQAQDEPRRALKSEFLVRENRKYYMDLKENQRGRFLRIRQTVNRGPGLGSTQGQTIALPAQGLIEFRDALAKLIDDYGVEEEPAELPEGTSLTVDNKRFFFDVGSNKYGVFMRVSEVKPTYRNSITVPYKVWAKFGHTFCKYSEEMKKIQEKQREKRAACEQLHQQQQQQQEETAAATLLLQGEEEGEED
As to the kind of experiment: EMSA; 100 ug/ml yeast tRNA; 250 mM NaCl, 20 mM HEPES pH 8.0, 3 mM MgCl2, 4% glycerol, 2 mM DTT, 100 ug/ml yeast tRNA, 2.5 nM RNA, 20 min RT; 6% TBE gel. As to conditions: protein: recombinant; tags: GST-PURA (pOPIN-J); GST removed with 3C protease; chain copies: 2; label: 5' 32P. On the technique in general: Mobility shift assays separate free from complexed probe on a gel.

The text below walks through data of paper PMC9943675, “Depletion of the RNA-binding protein PURA triggers changes in posttranscriptional gene regulation and loss of P-bodies”.

B1: CLTC (ssRNA)
RNA: GUCUUGUGUGUGUUUACUAACCCUUCCCUGAGGUUUGUGUAUGUUGGAUAUUGUGGUGUUUUAG
Turning to B1, the binding result is reported as “binds”.

B2: CLTA (ssRNA)
RNA: GUUGUUUGUGAUUGCAUGUUUCCUUCCUUCAACUGUGUUCUCCCUGGCAUU
For the molecule B2, the binding result is reported as “binds”.
